Key:
human thrombin (human) [1] = experiment: enzyme inhibition kinetics (amidolytic activity); thrombin (36.6 nM; 3.0 µl, 10 NIH/ml) with chromogenic substrate T1637 or FXa (0.13 µM) with F3301, lunathrombase 0-0.4 µM; Michaelis-Menten fit; competitive model for thrombin, non-competitive model for FXa
FXa [2] = experiment: as above
human fibrinogen (human) = human fibrinogen (human) (UniProt P02671); experiment: other fluorescence titration; thrombin, FXa or fibrinogen (0.2 µM each) incubated with lunathrombase (0.2-1.0 µM in the methods, 0.2-1.4 µM in the legend) for 3 min at room temperature; excitation 280 nm, emission 300-425 nm; one site saturation binding curve
human thrombin (human) [3] = experiment: as above
FXa [4] = experiment: as above
FXa [5] = target: FXa

Ki (human thrombin (human) [1]): 26.9 nM | Ki (FXa [2]): 10.3 nM | Kd (human fibrinogen (human)): 552 nM | Kd (human thrombin (human) [3]): 249 nM | Kd (FXa [4]): 1910 nM | inhibition of prothrombin (1.4 µM) activation by FXa (0.13 µM) pre-incubated with lunathrombase (0.2 µM), SDS-PAGE (FXa [5]): 100%
Substance: lunathrombase (enzyme)

— PMC5906637
